Target: T1, full-length (FL) RasGAP purified from E. coli (UniProt P20936 1-1047)
T1 construct: p120RasGAP (RASA1), full length; also called purified FL RasGAP; source: E. coli, purified
T1 sequence (looked up): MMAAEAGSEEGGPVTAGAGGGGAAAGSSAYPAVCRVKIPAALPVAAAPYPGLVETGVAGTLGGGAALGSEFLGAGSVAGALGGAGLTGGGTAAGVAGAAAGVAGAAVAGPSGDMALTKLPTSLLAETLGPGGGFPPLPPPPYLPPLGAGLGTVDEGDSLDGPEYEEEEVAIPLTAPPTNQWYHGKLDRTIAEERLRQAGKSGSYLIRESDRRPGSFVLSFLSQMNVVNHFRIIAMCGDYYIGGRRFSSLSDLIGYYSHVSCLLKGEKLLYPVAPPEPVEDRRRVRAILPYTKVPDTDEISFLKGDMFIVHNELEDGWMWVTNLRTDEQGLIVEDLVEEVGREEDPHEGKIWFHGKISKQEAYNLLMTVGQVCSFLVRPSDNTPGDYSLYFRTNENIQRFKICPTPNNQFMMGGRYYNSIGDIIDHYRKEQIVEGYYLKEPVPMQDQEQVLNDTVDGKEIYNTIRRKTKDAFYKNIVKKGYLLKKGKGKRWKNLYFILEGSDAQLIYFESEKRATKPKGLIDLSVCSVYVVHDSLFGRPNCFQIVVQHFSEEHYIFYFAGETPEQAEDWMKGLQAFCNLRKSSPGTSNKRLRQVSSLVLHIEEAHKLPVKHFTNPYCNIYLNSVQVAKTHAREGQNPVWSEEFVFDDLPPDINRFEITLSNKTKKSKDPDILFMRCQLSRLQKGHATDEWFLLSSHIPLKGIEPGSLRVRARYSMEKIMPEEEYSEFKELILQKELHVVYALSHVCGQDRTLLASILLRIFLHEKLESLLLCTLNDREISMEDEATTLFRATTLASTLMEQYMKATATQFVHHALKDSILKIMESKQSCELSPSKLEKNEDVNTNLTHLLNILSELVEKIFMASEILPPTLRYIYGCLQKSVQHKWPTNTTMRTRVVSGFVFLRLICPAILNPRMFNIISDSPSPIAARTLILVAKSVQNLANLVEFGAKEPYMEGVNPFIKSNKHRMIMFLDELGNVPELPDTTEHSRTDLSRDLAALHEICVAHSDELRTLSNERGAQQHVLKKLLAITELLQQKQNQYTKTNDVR
Test: pull-down; GST-merlin fragments pull down FL RasGAP purified from E. coli; western blot
Conditions: both partners purified

B1: GST-merlin aa 1–73 (domain or fragment, UniProt P35240 1-73, looked up)
chain: MAGAIASRMSFSSLKRKQPKTFTVRIVTMDAEMEFNCEMKWKGKDLFDLVCRTLGLRETWFFGLQYTIKDTVA
notes: merlin (NF2), part of the F1 subdomain of the FERM domain, aa 1-73; also called aa 1–73 fragment; part of merlin's F1 subdomain
- binding result: binds
